The test concerns the target human long isoform dopamine D2 (D2DA) receptor (human), P14416. Nature of the test: cell-based or functional assay.

human long isoform dopamine D2 (D2DA) receptor (human), P14416, sequence (P14416 whole entry, canonical isoform): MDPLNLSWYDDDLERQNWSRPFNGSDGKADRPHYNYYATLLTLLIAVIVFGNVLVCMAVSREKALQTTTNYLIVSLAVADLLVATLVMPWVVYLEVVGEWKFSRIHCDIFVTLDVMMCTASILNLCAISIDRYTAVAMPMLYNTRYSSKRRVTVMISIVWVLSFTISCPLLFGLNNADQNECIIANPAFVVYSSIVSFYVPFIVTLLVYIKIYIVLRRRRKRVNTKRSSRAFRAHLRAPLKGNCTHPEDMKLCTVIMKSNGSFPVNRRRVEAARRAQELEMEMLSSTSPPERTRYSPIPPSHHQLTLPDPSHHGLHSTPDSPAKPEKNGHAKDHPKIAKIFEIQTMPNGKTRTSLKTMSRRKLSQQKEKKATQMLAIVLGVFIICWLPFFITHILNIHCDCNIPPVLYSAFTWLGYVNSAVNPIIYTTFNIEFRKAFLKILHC

B1: H-…-OH (peptide)
peptide: H-SHQRWEYKGVNCIVY-OH
As to B1, the potentiation of the dopamine-induced increment in total milli-pH units (EAR), CHO system, paired one-tailed t-test came to 28.1 t statistic and the potentiation of the dopamine-induced increment in total milli-pH units (EAR), LtK system, paired one-tailed t-test came out at 13.3 t statistic.

B2: H-…-OH (peptide)
peptide: H-ERNRKPYRPKNKYLL-OH
Regarding B2, the EAR response to dopamine, LtK system, paired one-tailed t-test turned out to be 69.8 t statistic and the dopamine-induced EAR, CHO cells, paired one-tailed t-test came out at 1.28 t statistic.

B3: H-…-OH (peptide)
peptide: H-THQAFHYCNKQCLVI-OH
modifications: cysteine pairing not given here
Consider B3, for which the potentiation of the dopamine response (EAR), CHO system, paired one-tailed t-test was determined as 1.31 t statistic and the potentiation of the dopamine response (EAR), LtK system, paired one-tailed t-test amounted to 0.62 t statistic.

B4: … (peptide)
peptide: ERNRKPLRPKNKYLI
Molecule B4 displayed an EAR response to dopamine, LtK system, paired one-tailed t-test of 25.5 t statistic and a dopamine-induced EAR, CHO cells, paired one-tailed t-test of 1.54 t statistic.
